# Measured values as given in publication PMC2635478 (Traffic (Copenhagen, Denmark), 2008).
# Like-named read-outs stand apart in the source and are kept apart here.
# Experiments:
# SEC [1] = target: the molecule itself; experiment: SEC
# SEC [2] = target: the molecule itself; experiment: SEC; remark: listed apart in the source
Protein,stoichiometry N (SEC [1]),stoichiometry N (SEC [2])
"NEM-modified PITPβ (phosphatidylinositol transfer protein beta) in cytosol of NEM-treated HL60 cells (natural protein, human (endogenous in HL60), UniProt P48739 1-271, looked up, C95 alkylated by N-ethylmaleimide (NEM)) MVLIKEFRVVLPCSVQEYQVGQLYSVAEASKNETGGGEGIEVLKNEPYEKDGEKGQYTHKIYHLKSKVPAFVRMIAPEGSLVFHEKAWNAYPYCRTIVTNEYMKDDFFIKIETWHKPDLGTLENVHGLDPNTWKTVEIVHIDIADRSQVEPADYKADEDPALFQSVKTKRGPLGPNWKKELANSPDCPQMCAYKLVTIKFKWWGLQSKVENFIQKQEKRIFTNFHRQLFCWIDKWIDLTMEDIRRMEDETQKELETMRKRGSVRGTSAADV",2,–
"NEM-modified PITPβ (phosphatidylinositol transfer protein beta) in cytosol of NEM-treated PC12 cells (natural protein, rat (endogenous in PC12), UniProt P53812 1-271, looked up, C95 alkylated by N-ethylmaleimide (NEM)) MVLIKEFRVVLPCSVQEYQVGQLYSVAEASKNETGGGEGIEVLKNEPYENDGEKGQYTHKIYHLKSKVPAFVRMIAPEGSLVFHEKAWNAYPYCRTIVTNEYMKDDFFIKIETWHKPDLGTLENVHGLDPNTWKTVEIVHIDIADRSQVEPADYKADEDPALFQSVKTKRGPLGPNWKKELANTPDCPKMCAYKLVTIKFKWWGLQSKVENFIQKQEKRIFTNLHRQLFCWIDKWIDLTMEDIRRMEDETQKELETMRKKGSVRGTSAADA",–,2
